In US20220242973A1 (Molecular Partners, published 2022):

Experiments:
[1] = biological target: T1, Human FAP expressed on the cell surface (WI38, CHO-FAP1.9, U87MG cells) (human, UniProt Q12884 1-760); experiment: FACS on U87MG cells (FAP on the cell surface), His-tag detected with Penta-His AF647 conjugate, median fluorescence intensity
T1 construct: whole, on cells; Endogenous on WI38 and U87MG cells; from a human FAP cDNA (OriGene) in CHO-FAP1.9 cells; also called hFAP; FAP+ cells
T1 sequence (looked up): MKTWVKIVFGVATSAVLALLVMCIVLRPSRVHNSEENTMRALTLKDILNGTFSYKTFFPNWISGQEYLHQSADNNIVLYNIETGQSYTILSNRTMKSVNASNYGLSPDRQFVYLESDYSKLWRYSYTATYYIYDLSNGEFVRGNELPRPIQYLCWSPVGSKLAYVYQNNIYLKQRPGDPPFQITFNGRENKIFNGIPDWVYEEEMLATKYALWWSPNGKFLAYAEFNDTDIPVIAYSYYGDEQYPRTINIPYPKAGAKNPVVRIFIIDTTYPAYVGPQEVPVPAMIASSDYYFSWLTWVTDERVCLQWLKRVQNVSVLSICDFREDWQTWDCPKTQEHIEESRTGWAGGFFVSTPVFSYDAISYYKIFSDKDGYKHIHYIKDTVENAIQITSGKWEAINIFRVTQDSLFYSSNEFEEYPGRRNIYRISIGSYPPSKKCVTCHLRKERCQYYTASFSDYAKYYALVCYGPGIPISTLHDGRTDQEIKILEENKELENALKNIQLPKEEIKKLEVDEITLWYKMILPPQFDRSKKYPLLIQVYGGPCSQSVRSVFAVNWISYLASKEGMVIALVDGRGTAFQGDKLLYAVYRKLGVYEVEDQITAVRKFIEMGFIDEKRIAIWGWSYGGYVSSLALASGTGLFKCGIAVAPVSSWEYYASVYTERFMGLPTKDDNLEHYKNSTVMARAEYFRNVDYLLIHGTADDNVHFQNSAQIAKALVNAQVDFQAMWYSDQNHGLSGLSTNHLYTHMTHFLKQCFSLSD
Method: (§1) In order to determine whether the fusion of a biologically active molecule to a FAP-specific ankyrin repeat domain affects the ability of the molecule to specifically recognize and bind to FAP expressed on the surface of cells, the binding of selected ankyrin repeat fusion proteins to FAP-expressing cells was tested. U87 MG cells and WI38 cells are known to express FAP on the cell surface and they were chosen as representative cells for these experiments. FAP expression on the U87 MG and WI38 cells was confirmed by FACS analysis (data not shown).
(§2) Using multi-well plates, 40,000 cells (either U87MG or WI38) were added per well in 50 μl of PBS. 50 μl of appropriate dilutions (2× dilution steps) of ankyrin repeat fusion protein (DARPin® protein #40 or DARPin® protein #41) was then added to the cells and incubated for 30 minutes on ice. After the ankyrin repeat fusion protein-binding reaction, cells were washed twice with PBS. Direct immunofluorescent detection of the His-tagged ankyrin repeat fusion proteins using Penta-His AF647 conjugate (QIAgen) and determination of live cells using LIVE/DEAD™ Fixable Green Dead Cell Stain Kit (ThermoFisher) were then performed together in one step. […] Acquisition and FACS analysis, including the determination of median fluorescence intensity (MFI), were done within 5 days after staining using an AttuneNxT instrument. […]

[2] = biological target: T1, Human FAP expressed on the cell surface …; experiment: FACS on WI38 cells (FAP on the cell surface), His-tag detected with Penta-His AF647 conjugate, median fluorescence intensity
Method: as §1, §2

B1: DARPin® protein #41 (designed binder)
chain: MRGSHHHHHHGSDLGKKLLEAARAGQDDEVRELLKAGADVNAKDYFSHTPLHLAARNGHLKIVEVLLKAGADVNAKDFAGKTPLHLAANEGHLEIVEVLLKAGADVNAQDIFGKTPADIAADAGHEDIAEVLQKAAGSPTPTPTTPTPTPTTPTPTPTGSDLGEKLLVAALYGQDDEVRILLAAGADVNAKDQWGLTPLHKAALQGHLEIVEVLLKAGADVNAKDERGHTPLHWAARFGHLEIVEVLLKAGADVNAQDQKGYTPADLAALWGHEDIAEVLQKAA
notes: Fusion of a serum albumin-specific and a FAP-specific ankyrin repeat domain
**Q.** With B1 as the binder, how does the “EC50 (read off the curve)” value [1] read?
**A.** ~2 nM

**Q.** What about the “EC50 (read off the curve)” value [2] of the same binder?
**A.** ~2 nM
